IntAct's records for PubMed 20010697

B1: Zinc finger protein ZFPM1 (Mus musculus), O35615 (parent)
chain: MSRRKQSNPRQIKRSLRDMEAGEEAKAMDSSPKEQEAPDPEAPAIEEPPSPPREDVSPPAVPAPPESPEDPEDMEGQELEMRPQDEEKEEKEEEAAMASPWSGPEELELALQDGQRCVRARLSLTEGLSWGPFYGSIQTRALSPEREEPGPAVTLMVDESCWLRMLPQVLTEEAANSEIYRKDDALWCRVTKVVPSGGLLYVRLVTEPHGAPRHPVQEPVEPGGLAPVHTDIQLLPQQAGMASILATAVINKDVFPCKDCGIWYRSERNLQAHLLYYCASRQRAGSPVSATEEKPKETYPNERVCPFPQCRKSCPSASSLEIHMRSHSGERPFVCLICLSAFTTKANCERHLKVHTDTLSGVCHNCGFISTTRDILYSHLVTNHMVCQPGSKGEIYSPGAGHPAAKLPPDSLAGFQQHSLMHSPLVPADKAPTPSSGLDSKAEVTNGETRVPPQNGGSSESPAAPRTIKVEAAEEPEATRASGPGEPGPQAPSRTPSPHSPNPVRVKTELSSPTPGSSPGPGELTMAGTLFLPQYVFSPDAGTTTVPTAPQASEILAKMSELVHNRLQQGAGSSGAAGTPTGLFSGTKGATCFECEITFNNINNFYVHKRLYCSGRRAPEDPPTVRRPKAATGPARAPAGAAAEPDPSRSSPGPGPREEEASGTTTPEAEAAGRGSEGSQSPGSSVDDAEDDPSRTLCEACNIRFSRHETYTVHKRYYCASRHDPPPRRPPAPTTAPGPAAPALTAPPVRTRRRRKLYELPAAGAPPPAAGPAPVPVVPSPTAELPSSPRPGSASAGPAPALSPSPVPDGPIDLSKRPRRQSPDAPTALPALADYHECTACRVSFHSLEAYLAHKKYSCPAAPLRTTALCPYCPPNGRVRGDLVEHLRQAHGLQVAKPAASPGAEPRTPAERAPRDSPDGRAPRSPSPAPENTPSDPADQGARTPSKGPPAPAPAPGGGGGHRYCRLCNIRFSSLSTFIAHKKYYCSSHAAEHVK
partner: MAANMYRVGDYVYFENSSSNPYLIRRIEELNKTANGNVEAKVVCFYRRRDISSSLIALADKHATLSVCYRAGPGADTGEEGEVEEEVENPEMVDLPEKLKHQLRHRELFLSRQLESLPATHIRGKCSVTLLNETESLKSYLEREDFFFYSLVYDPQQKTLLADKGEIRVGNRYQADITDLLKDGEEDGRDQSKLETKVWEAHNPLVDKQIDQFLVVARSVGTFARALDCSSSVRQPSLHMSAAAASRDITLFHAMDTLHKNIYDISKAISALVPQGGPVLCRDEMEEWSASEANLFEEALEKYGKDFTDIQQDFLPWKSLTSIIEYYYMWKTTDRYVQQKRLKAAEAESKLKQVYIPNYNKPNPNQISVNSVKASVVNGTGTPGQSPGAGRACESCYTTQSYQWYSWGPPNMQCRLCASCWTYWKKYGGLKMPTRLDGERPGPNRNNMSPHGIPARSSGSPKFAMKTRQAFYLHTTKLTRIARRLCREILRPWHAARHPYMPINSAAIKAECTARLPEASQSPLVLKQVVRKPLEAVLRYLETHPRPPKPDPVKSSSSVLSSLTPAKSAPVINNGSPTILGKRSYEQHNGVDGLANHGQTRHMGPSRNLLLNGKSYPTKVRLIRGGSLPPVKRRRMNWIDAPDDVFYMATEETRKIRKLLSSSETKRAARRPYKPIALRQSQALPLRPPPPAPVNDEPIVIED

Variants of: B1
Settings: with mta1_rat Mta1, Q62599

| effect of a mutation on the interaction | Variant |
| --- | --- |
| disrupting interaction | R3A |
| disrupting interaction | K5A |
